Source: the supplement of paper PMC10126150
± gives the standard deviation of the averaged measurements.

Tested on: ATP
Experiment: switch fluorescence ratio, 500 uM ATP over buffer (Cy3 cluster intensity, sum of 5 cycles each) (fold (ratio)); higher = stronger signal-on switching upon ATP binding; sequences stand for … in TCGTCGGCAGCGTCAGATGTGTATAAGAGACAGTTTTTTTTTTTTTTTTTTTTTTTTT…TC
Settings: aptamer strand: ATP DNA aptamer (quencher-CACCTGGGGGAGTATTGCGGAGGAAGG + anchor), 100 nM annealed; ATP concentration: 500 uM
In short: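 The fluorescence ratio divides summed target-cycle Cy3 intensity by summed buffer-cycle Cy3 intensity for each cluster and is averaged per switch-domain sequence. Cy3-labelled switching-strand clusters on a modified Illumina MiSeq flow-cell were annealed to 100 nM quencher-labelled ATP aptamer, then imaged in selection buffer and again after 15 min with 500 uM ATP at 22 °C. Five such cycles were run, with NaOH stripping and re-annealing between them, and clusters outside 100-1000 RFU were excluded.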
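Note: ATP exposure 15 min at 22 °C before imaging.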

| Sequence | switch fluorescence ratio |
| --- | --- |
| GGGGGTGATG | 1 ± 0.035 |
| GGGGGTGGCT | 1.027 ± 0.0069 |
| GGGGGTGGGT | 1 ± 0.021 |
| GGGGGTGGTC | 1.01 ± 0.04 |
| GGGGGTGTCG | 0.994 ± 0.035 |
| GGGGGTGTGG | 0.999 ± 0.035 |
| GGGGGTTCAA | 0.983 ± 0.025 |
| GGGGGTTGAC | 1.01 ± 0.027 |
| GGGGGTTGGC | 0.966 ± 0.047 |
| GGGGGTTGGT | 0.996 ± 0.026 |
| GGGGGTTGTG | 1 ± 0.036 |
| GGGGGTTGTT | 0.997 ± 0.025 |
| GGGGTAAAGA | 1.02 ± 0.036 |
| GGGGTAAGGC | 0.979 ± 0.019 |
| GGGGTAATAG | 1.12 ± 0.14 |
| GGGGTAATAT | 1.06 ± 0.053 |
| GGGGTACATG | 1.022 ± 0.0055 |
| GGGGTACGAT | 1.02 ± 0.027 |
| GGGGTACGGC | 1.03 ± 0.041 |
| GGGGTACTAG | 0.9981 ± 0.0071 |
| GGGGTAGACA | 1 ± 0.031 |
| GGGGTAGAGA | 0.99 ± 0.015 |
| GGGGTAGCAT | 0.986 ± 0.028 |
| GGGGTAGCGT | 0.99 ± 0.03 |
| GGGGTAGTCA | 1 ± 0.035 |

| Sequence | switch fluorescence ratio |
| --- | --- |
| GGGGTAGTCG | 0.988 ± 0.012 |
| GGGGTATCAT | 0.983 ± 0.03 |
| GGGGTATCTC | 0.986 ± 0.021 |
| GGGGTATGGG | 0.985 ± 0.038 |
| GGGGTATGTG | 0.992 ± 0.039 |
| GGGGTCCTAA | 0.986 ± 0.011 |
| GGGGTCCTTT | 0.9886 ± 0.0044 |
| GGGGTCGGG | 0.977 ± 0.044 |
| GGGGTCTGGG | 0.966 ± 0.016 |
| GGGGTGAGAG | 0.993 ± 0.026 |
| GGGGTGATAG | 1 ± 0.042 |
| GGGGTGATCA | 1.05 ± 0.064 |
| GGGGTGATCC | 1.01 ± 0.012 |
| GGGGTGCCAA | 0.975 ± 0.067 |
| GGGGTGGAGG | 1.02 ± 0.017 |
| GGGGTGGAGT | 0.971 ± 0.019 |
| GGGGTGGGAG | 1.01 ± 0.041 |
| GGGGTGGGGA | 1 ± 0.036 |
| GGGGTGGGGC | 1 ± 0.042 |
| GGGGTGGTAA | 1.01 ± 0.02 |
| GGGGTGTAAT | 1.01 ± 0.021 |
| GGGGTGTAGC | 0.992 ± 0.042 |
| GGGGTGTAGG | 0.993 ± 0.024 |
| GGGGTGTGAC | 1.022 ± 0.0026 |
| GGGGTGTGCT | 1.1 ± 0.16 |

| Sequence | switch fluorescence ratio |
| --- | --- |
| GGGGTTAAAT | 1 ± 0.047 |
| GGGGTTACGG | 0.996 ± 0.062 |
| GGGGTTAGGG | 1 ± 0.032 |
| GGGGTTATGG | 0.984 ± 0.041 |
| GGGGTTCCGC | 1.05 ± 0.026 |
| GGGGTTCGCG | 1.004 ± 0.0048 |
| GGGGTTCGGC | 1.058 ± 0.0023 |
| GGGGTTGAAG | 0.979 ± 0.01 |
| GGGGTTGACA | 1.04 ± 0.051 |
| GGGGTTGAGG | 0.993 ± 0.023 |
| GGGGTTGCGA | 0.996 ± 0.018 |
| GGGGTTGGGG | 0.994 ± 0.031 |
| GGGGTTGTGG | 0.988 ± 0.032 |
| GGGGTTTAAT | 1 ± 0.034 |
| GGGGTTTCCG | 0.9992 ± 0.0093 |
| GGGGTTTGGT | 0.984 ± 0.038 |
| GGGGTTTTAT | 1.01 ± 0.018 |
| GGGGTTTTGA | 0.97725 ± 0.00091 |
| GGGGTTTTGG | 0.995 ± 0.025 |
| GGGTAAAAAG | 0.991 ± 0.018 |
| GGGTAACGAG | 1.006 ± 0.0078 |
| GGGTAAGAGA | 1.04 ± 0.079 |
| GGGTAAGGCA | 0.986 ± 0.071 |
| GGGTAATGTA | 1.02 ± 0.014 |
| GGGTAATTTT | 1.02 ± 0.047 |

| Sequence | switch fluorescence ratio |
| --- | --- |
| GGGTACAGGT | 1.18 ± 0.2 |
| GGGTACGCTT | 1 ± 0.025 |
| GGGTAGAATG | 1.02 ± 0.03 |
| GGGTAGCCTG | 0.982 ± 0.02 |
| GGGTAGCTCG | 0.987 ± 0.031 |
| GGGTAGGAAA | 1.011 ± 0.007 |
| GGGTAGGGCC | 1.026 ± 0.0023 |
| GGGTAGGGGG | 0.989 ± 0.02 |
| GGGTAGGGTC | 1.01 ± 0.022 |
| GGGTAGTGAG | 0.999 ± 0.02 |
| GGGTATACGG | 0.982 ± 0.086 |
| GGGTATAGGC | 0.981 ± 0.046 |
| GGGTATAGGT | 0.999 ± 0.016 |
| GGGTATCACG | 1 ± 0.017 |
| GGGTATCAGG | 0.965 ± 0.016 |
| GGGTATCTAT | 1.012 ± 0.0067 |
| GGGTATGGCT | 1.02 ± 0.018 |
| GGGTATGTAT | 0.992 ± 0.027 |
| GGGTATGTGG | 0.972 ± 0.032 |
| GGGTATGTGT | 0.986 ± 0.015 |
| GGGTATTGAT | 1.01 ± 0.042 |
| GGGTCAAATA | 0.982 ± 0.011 |
| GGGTCAACGC | 0.9974 ± 0.0036 |
| GGGTCAAGCG | 0.943 ± 0.017 |
| GGGTCAGGTA | 0.996 ± 0.03 |

| Sequence | switch fluorescence ratio |
| --- | --- |
| GGGTCCACAG | 1.01 ± 0.04 |
| GGGTCCATGG | 0.985 ± 0.024 |
| GGGTCCATTT | 1.01 ± 0.037 |
| GGGTCCCTTG | 1 ± 0.026 |
| GGGTCCGCGG | 1.04 ± 0.011 |
| GGGTCCGGCC | 0.992 ± 0.02 |
| GGGTCCTAAG | 0.975 ± 0.038 |
| GGGTCCTGCG | 1.04 ± 0.019 |
| GGGTCCTTGT | 1.01 ± 0.041 |
| GGGTCGATTT | 0.999 ± 0.01 |
| GGGTCGCGCA | 1.02 ± 0.029 |
| GGGTCGGACG | 1.028 ± 0.0088 |
| GGGTCGGCGA | 1.03 ± 0.011 |
| GGGTCGGGAG | 0.979 ± 0.027 |
| GGGTCTAAG | 0.987 ± 0.041 |
| GGGTCTGCAC | 0.997 ± 0.013 |
| GGGTCTGGTA | 1.02 ± 0.038 |
| GGGTCTTCGC | 0.991 ± 0.024 |
| GGGTCTTGGC | 1.0357 ± 0.00074 |
| GGGTCTTTTC | 1.11 ± 0.11 |
| GGGTCTTTTT | 1.02 ± 0.055 |
| GGGTGAACAT | 0.98659 ± 0.00029 |
| GGGTGACAAT | 1 ± 0.04 |
| GGGTGAGCGA | 1.05 ± 0.064 |
| GGGTGAGGAT | 1 ± 0.046 |

| Sequence | switch fluorescence ratio |
| --- | --- |
| GGGTGAGGGA | 1.01 ± 0.035 |
| GGGTGAGGGG | 1.01 ± 0.033 |
| GGGTGAGTTT | 1.038 ± 0.0051 |
| GGGTGATGTA | 0.996 ± 0.026 |
| GGGTGATTAA | 0.994 ± 0.017 |
| GGGTGCAATT | 1.05 ± 0.028 |
| GGGTGCAGCG | 0.993 ± 0.03 |
| GGGTGCGGAC | 1.01 ± 0.042 |
| GGGTGCGTTC | 0.964 ± 0.027 |
| GGGTGCGTTG | 1.04 ± 0.024 |
| GGGTGGAAGC | 1.02 ± 0.018 |
| GGGTGGAGGG | 0.973 ± 0.012 |
| GGGTGGATAG | 0.971 ± 0.018 |
| GGGTGGCTCG | 0.997 ± 0.046 |
| GGGTGGCTTT | 0.9872 ± 0.0083 |
| GGGTGGGCAG | 1.009 ± 0.0027 |
| GGGTGGGGAT | 1 ± 0.02 |
| GGGTGGGTGT | 1.05 ± 0.057 |
| GGGTGGTAGA | 1.01 ± 0.04 |
| GGGTGGTATT | 1.03 ± 0.013 |
| GGGTGGTGCC | 0.997 ± 0.056 |
| GGGTGGTGGG | 0.987 ± 0.057 |
| GGGTGGTGTA | 1.07 ± 0.096 |
| GGGTGGTGTG | 0.99 ± 0.068 |
| GGGTGGTTTT | 1.01 ± 0.035 |

| Sequence | switch fluorescence ratio |
| --- | --- |
| GGGTGTAGCG | 0.965 ± 0.026 |
| GGGTGTAGTA | 0.9978 ± 0.0079 |
| GGGTGTAGTC | 1.02 ± 0.043 |
| GGGTTAAAGA | 1 ± 0.017 |
| GGGTTAACGT | 0.987 ± 0.017 |
| GGGTTAAGGG | 0.984 ± 0.035 |
| GGGTTACGGG | 1.008 ± 0.0045 |
| GGGTTAGATG | 0.9893 ± 0.0069 |
| GGGTTAGGAA | 0.991 ± 0.022 |
| GGGTTAGGGA | 0.996 ± 0.025 |
| GGGTTAGGGT | 0.991 ± 0.049 |
| GGGTTAGTTT | 0.992 ± 0.049 |
| GGGTTATATT | 0.988 ± 0.024 |
| GGGTTATCGG | 0.967 ± 0.041 |
| GGGTTATTAT | 1.01 ± 0.019 |
| GGGTTCCGGC | 1.03 ± 0.098 |
| GGGTTCCTAT | 0.987 ± 0.013 |
| GGGTTCGTTA | 0.993 ± 0.029 |
| GGGTTCTTAA | 0.981 ± 0.048 |
| GGGTTGAACC | 0.994 ± 0.032 |
| GGGTTGAAGG | 0.9875 ± 0.0022 |
| GGGTTGAGGA | 1.01 ± 0.05 |
| GGGTTGAGGG | 1 ± 0.027 |
| GGGTTGAGTT | 0.9849 ± 0.0035 |
| GGGTTGATGC | 1.02 ± 0.041 |

| Sequence | switch fluorescence ratio |
| --- | --- |
| GGGTTGCATG | 0.976 ± 0.016 |
| GGGTTGCCCT | 0.982 ± 0.033 |
| GGGTTGCTGT | 1.03 ± 0.1 |
| GGGTTGGGAG | 0.998 ± 0.044 |
| GGGTTGGGAT | 0.995 ± 0.021 |
| GGGTTGGGTT | 1.05 ± 0.18 |
| GGGTTGGTCA | 0.994 ± 0.0094 |
| GGGTTGTATT | 0.991 ± 0.031 |
| GGGTTGTGTG | 0.991 ± 0.11 |
| GGGTTGTTTT | 0.9944 ± 0.0082 |
| GGGTTTCAGA | 1.01 ± 0.028 |
| GGGTTTGCGA | 1.02 ± 0.048 |
| GGGTTTGCTG | 1.01 ± 0.076 |
| GGGTTTGTAG | 1.01 ± 0.056 |
| GGGTTTTATG | 0.991 ± 0.033 |
| GGGTTTTGCG | 0.9735 ± 0.0082 |
| GGGTTTTGGG | 0.979 ± 0.064 |
| GGGTTTTGTA | 0.974 ± 0.018 |
| GGTAAAAAAG | 1 ± 0.028 |
| GGTAAAAGAT | 0.977 ± 0.015 |
| GGTAAACGCG | 0.977 ± 0.016 |
| GGTAAAGATA | 0.986 ± 0.019 |
| GGTAAAGGCG | 0.9621 ± 0.0048 |
| GGTAAATTGT | 1.01 ± 0.028 |
| GGTAACATGG | 1.01 ± 0.021 |
